# From US8173771B2, “Humanin receptor or humanin-like polypeptide receptor” (Keio Univeristy, priority 2005, dated 2012)
# T1: G-CSFR/gp130 chimera proteins (Homo sapiens, UniProt P40189+Q99062)
# T1 construct: the extracellular domain of the human G-CSF receptor fused to the full transmembrane domain; expressed in transfected cells; host or cells: F11 cells
# T1 sequence (Q99062+P40189 with tags, fused parts or gaps): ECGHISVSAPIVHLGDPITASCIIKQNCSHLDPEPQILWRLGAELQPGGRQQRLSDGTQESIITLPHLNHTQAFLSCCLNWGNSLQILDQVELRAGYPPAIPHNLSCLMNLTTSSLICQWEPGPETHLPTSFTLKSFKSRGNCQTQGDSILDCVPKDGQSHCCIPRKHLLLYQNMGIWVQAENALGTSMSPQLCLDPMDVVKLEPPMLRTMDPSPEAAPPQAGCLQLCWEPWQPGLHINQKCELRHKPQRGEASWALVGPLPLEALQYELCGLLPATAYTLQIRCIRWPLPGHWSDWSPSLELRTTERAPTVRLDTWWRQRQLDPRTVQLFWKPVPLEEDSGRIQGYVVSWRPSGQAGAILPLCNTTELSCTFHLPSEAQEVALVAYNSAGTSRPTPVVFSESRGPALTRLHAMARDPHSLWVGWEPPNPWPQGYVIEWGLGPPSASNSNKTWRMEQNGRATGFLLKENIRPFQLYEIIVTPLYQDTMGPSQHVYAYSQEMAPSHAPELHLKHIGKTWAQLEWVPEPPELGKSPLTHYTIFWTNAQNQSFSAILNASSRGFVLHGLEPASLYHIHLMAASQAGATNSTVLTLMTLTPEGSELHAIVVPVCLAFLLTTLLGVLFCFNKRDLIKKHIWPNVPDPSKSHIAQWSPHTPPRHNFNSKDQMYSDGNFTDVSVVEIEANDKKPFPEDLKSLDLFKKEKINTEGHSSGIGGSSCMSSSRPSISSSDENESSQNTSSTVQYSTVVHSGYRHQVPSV
# B1: G-CSF: human G-CSF, ligand stimulating G-CSFR/gp130 chimera proteins (protein, UniProt P09919 31-207, looked up)
# Granulocyte …: TPLGPASSLPQSFLLKCLEQVRKIQGDGAALQEKLVSECATYKLCHPEELVLLGHSLGIPWAPLSSCPSQALQLAGCLSQLHSGLFLYQGLLQALEGISPELGPTLDTLQLDVADFATTIWQQMEELGMAPALQPTQGAMPAFASAFQRRAGGVLVASHLQSFLEVSYRVLRHLAQP
# Columns and labels:
# [1] = molecular target: T1, G-CSFR/gp130 chimera proteins; experiment: G-CSF stimulation of G-CSFR/gp130 chimera proteins in F11 cells, cell mortality by Trypan blue exclusion; assay type: cell-based; conditions: 100 nM; G-133 expressed
# Procedure: (§1) B) F11 cells were transfected with 0.5 μg of the pcDNA3 vector or pcDNA3-APP in association with 0.5 μg of the pEFBos vector or the pEFBos vectors encoding the extracellular domain of the human G-CSF receptor fused to the full transmembrane domain and a C-terminally truncated intracytoplasmic domain of gp130 (named “G-CSFR/gp130”). G-CSFR/gp130 (277) contains the full intracytoplasmic domain of gp130 corresponding to amino acids 1-277, while G-CSFR/gp130 (25), (68), and (133) contain the intracytoplasmic domains corresponding to amino acids 1-25, 1-68, and 1-133, respectively. At 24 hr after transfection, the cells were added with indicated amounts of human G-CSF. Cell mortality was determined by Trypan blue exclusion assay at 72 hr after transfection. The results of immunoblot analysis of the expression of […] are shown in photos.
# (§2) C) Instead of the pcDNA3-V6421-APP vector, pcDNA3-K595 N/M596L-APP (NL-APP), M146L-PS1 and N141-I-PS2 vectors were used to do the same experiments as in FIG. 2A. The results of immunoblot analysis of the expression of NL-APP, M146L-PS1 and N141-I-PS2 are shown in photos.
# (§3) D) F11 cells were transfected with 0.5 μg of the pEFBos vector or pEF-G85R-SOD1 in association with 0.5 μg of the pEFBos vector or each pEFBos vector encoding G-CSFR/gp130 (277) or G-CSFR/gp130 (25). At 24 hr after transfection, the cells were added with indicated amounts of human G-CSF. Cell mortality was determined by Trypan blue exclusion assay at 72 hr after transfection. The results of the expression of G85R-SOD1, which were confirmed by the immunoblot analysis, are shown in photos.
# (§4) Neurohybrid F11 cells and pcDNA3 vectors encoding V642I-APP, K595N/M596L-APP (NL-APP), M146L-PS1, and N141I-PS2 cDNA were prepared as already described (Hashimoto et al, 2000, 2001a, 2003). pCAG-human gp130 and pCAG-human gp130 ED (the extracellular domain of human gp130) were prepared as described (Kumanogoh et al., 1997). pcDNA3 vectors encoding the extracellular domain of the G-CSF receptor fused to the full-length transmembrane domain and various portions of the intracellular domains of human gp130, were prepared as described (Fukada et al, 1996). The intracellular domain of gp130 was C-terminally truncated. A chimera protein named G-277 contained a 277 amino acid-long full intracellular domain of gp130 (SEQ ID NO:35), while G-195, G-133, G-68, and G-25 contained the amino acids 1-195 (SEQ ID NO:36), 1-133 (SEQ ID NO:37), 1-68 (SEQ ID NO:38), and 1-25 (SEQ ID NO:39) intracellular portions, respectively. C-terminally myc-tagged human WSX-1 and myc-tagged mouse CREME9 cDNAs were amplified from human and mouse embryo cDNA (BioChain) by PCR using sets of sense primers and antisense primers: 5′-[…]-3′ (SEQ ID NO:3) and 5′-[…]-3′ (SEQ ID NO:4) for human WSX-1; 5′-[…]-3′ (SEQ ID NO:5); and 5′-[…]-3′ (SEQ ID NO:6) for mouse CREME9. Plasmids encoding C-terminally V5-tagged human CNTF-R (V %-CNTF-R) and rat IL-6R (pUCM18-rat IL-6R) were purchased from Invitrogen and American Culture Collection, respectively. A pEFBos vector comprising familial ALS (FALS) gene G85R-SOD1 was kindly provided by Dr. Shoji Tsuji. Cosmid of human wild […] was constructed by inserting a full-length gp130 into a SwaI site of pAxCAwt (TaKaRa).
# (§5) The transfection procedures were as described (Hashimoto et al, 2000, 2001a, 2003). F11 cells, seeded at 7×10^4/well in 6-well dishes, were transfected with indicated vectors. Transfection efficiency in these protocols has been determined to be invariably around 70%. At 72 hrs after transfection, the Trypan blue exclusion assay and LDH assay were performed as a cell-death assay and the WST-8 assay was performed as cell-viability assays (Hashimoto et al, 2000, 2001a b, 2003). HN was added to the culture medium usually at 5 hrs after transfection, but in some cases at 24 hrs after transfection.
# [2] = system: G-CSFR/gp130 chimera proteins; experiment: as above; assay type: cell-based, human; conditions: 100 nM
# Procedure: as §1, §2, §3, §4, §5
molecule,measurement,setting,value
B1,prevention of neuronal cell death induced by V642I-APP,[1],partially prevented
same,prevention of neuronal cell death induced by mutant Cu/Zn-superoxide dismutase (G85R-SOD1),[2],did not prevent
same,prevention of neuronal cell death induced by V642I-APP,[2]; G-25 or G-68 expressed,did not prevent
